{"source": "patent US20020192780", "proteins": {"B1": {"name": "TGase (Guinea pig liver, EC 2.3.2.13, Sigma) (protein)", "chain": "AEDLILERCDLQLEVNGRDHRTADLCRERLVLRRGQPFWLTLHFEGRGYEAGVDTLTFNAVTGPDPSEEAGTMARFSLSSAVEGGTWSASAVDQQDSTVSLLLSTPADAPIGLYRLSLEASTGYQGSSFVLGHFILLYNPRCPADAVYMDSDQERQEYVLTQQGFIYQGSAKFINGIPWNFGQFEDGILDICLMLLDTNPKFLKNAGQDCSRRSRPVYVGRVVSAMVNCNDDQGVLQGRWDNNYSDGVSPMSWIGSVDILRRWKDYGCQRVKYGQCWVFAAVACTVLRCLGIPTRVVTNFNSAHDQNSNLLIEYFRNESGEIEGNKSEMIWNFHCWVESWMTRPDLEPGYEGWQALDPTPQEKSEGTYCCGPVPVRAIKEGHLNVKYDAPFVFAEVNADVVNWIRQKDGSLRKSINHLVVGLKISTKSVGRDEREDITHTYKYPEGSEEEREAFVRANHLNKLATKEEAQEETGVAMRIRVGQNMTMGSDFDIFAYITNGTAESHECQLLLCARIVSYNGVLGPVCSTNDLLNLTLDPFSENSIPLHILYEKYGDYLTESNLIKVRGLLIEPAANSYVLAERDIYLENPEIKIRVLGEPKQNRKLIAEVSLKNPLPVPLLGCIFTVEGAGLTKDQKSVEVPDPVEAGEQAKVRVDLLPTEVGLHKLVVNFECDKLKAVKGYRNVIIGPA"}}, "key": {"[1]": {"target": "PLA2 (Bovine pancreas, EC 3.1.1.4, Sigma), P00593", "sequence (P00593 23-145)": "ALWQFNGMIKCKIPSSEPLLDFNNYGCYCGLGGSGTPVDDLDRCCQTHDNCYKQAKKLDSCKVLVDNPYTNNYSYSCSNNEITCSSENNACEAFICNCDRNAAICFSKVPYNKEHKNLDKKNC"}, "SEQ ID NO:2 (KVLDGQDP)": {"target": "T1, SEQ ID NO:2 (KVLDGQDP)", "T1 chain": "KVLDGQDP"}, "SEQ ID NO:1 (KVLDPVKG)": {"target": "T2, SEQ ID NO:1 (KVLDPVKG)", "T2 chain": "KVLDPVKG"}}, "data": [{"protein": "B1", "values": [{"measurement": "PLA2 activity", "setting": "[1]", "result": "PLA2 activity was increased about 2-fold after TGase 2 treatment"}, {"measurement": "TGase activity (incorporation of 14C-putrescine into succinylated casein), peptide 1x10^-8 M preincubated with the enzyme", "setting": "SEQ ID NO:2 (KVLDGQDP)", "result": "significantly reduced the PLA2 and TGase activities"}, {"measurement": "TGase activity (incorporation of 14C-putrescine into succinylated casein), peptide 1x10^-8 M preincubated with the enzyme", "setting": "SEQ ID NO:1 (KVLDPVKG)", "result": "significantly reduced the PLA2 and TGase activities"}]}]}
